# From PMC7352286, “The Heterooligomerization of Human Small Heat Shock Proteins Is Controlled by Conserved Motif Located in the N-Terminal Domain” (International Journal of Molecular Sciences, 2020)
# Numbering of substitutions follows the chain as printed.
# T1: wild-type human small heat shock protein HspB6 (human, UniProt O14558 1-160)
# T1 construct: HspB6, human, UniProt O14558; WT cDNA in pET22b or pET23a, parent of the full-size mutants; No tag is named; also called WT HspB6; source: E. coli BL21(DE3) pLysS, purified (ammonium sulfate, HiTrap Phenyl-Sepharose, Superdex 200)
# T1 sequence (looked up): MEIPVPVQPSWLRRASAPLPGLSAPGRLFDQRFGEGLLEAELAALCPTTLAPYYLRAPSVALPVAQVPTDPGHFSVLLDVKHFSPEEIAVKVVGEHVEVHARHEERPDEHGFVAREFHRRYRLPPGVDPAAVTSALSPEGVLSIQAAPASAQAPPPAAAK
# T2: wild-type human small heat shock protein HspB6 (human), O14558
# T2 chain: T1 sequence (looked up)
# B1: wild-type human small heat shock protein HspB5 (natural protein, UniProt P02511 1-175, looked up)
# chain: MDIAIHHPWIRRPFFPFHSPSRLFDQFFGEHLLESDLFPTSTSLSPFYLRPPSFLRAPSWFDTGLSEMRLEKDRFSVNLDVKHFSPEELKVKVLGDVIEVHGKHEERQDEHGFISREFHRKYRIPADVDPLTITSSLSSDGVLTVNGPRKQVSGPERTIPITREEKPAVTAAPKK
# notes: WT cDNA in pET22b or pET23a, parent of the full-size mutants; No tag is named; Forms large homooligomers; also called WT HspB5; source: E. coli BL21(DE3) pLysS, purified (ammonium sulfate, HiTrap Q, Superdex 200)
# B2: HspB5 R22A (natural protein, human, UniProt P02511 1-175, looked up)
# chain: B1 chain with R22A
# notes: also called R/A HspB5; R/A mutant of HspB5; source: E. coli BL21(DE3) pLysS, purified (ammonium sulfate, HiTrap Q, Superdex 200)
# B3: HspB6 Δ26–30 (natural protein, human, UniProt O14558 1-160, looked up)
# chain: MEIPVPVQPSWLRRASAPLPGLSAPQRFGEGLLEAELAALCPTTLAPYYLRAPSVALPVAQVPTDPGHFSVLLDVKHFSPEEIAVKVVGEHVEVHARHEERPDEHGFVAREFHRRYRLPPGVDPAAVTSALSPEGVLSIQAAPASAQAPPPAAAK
# notes: also called Δ HspB6; Δ mutant of HspB6; source: E. coli BL21(DE3) pLysS, purified (ammonium sulfate, HiTrap Phenyl-Sepharose, Superdex 200)
# B4: HspB5 Δ21–25 (natural protein, human, UniProt P02511 1-175, looked up)
# chain: MDIAIHHPWIRRPFFPFHSPQFFGEHLLESDLFPTSTSLSPFYLRPPSFLRAPSWFDTGLSEMRLEKDRFSVNLDVKHFSPEELKVKVLGDVIEVHGKHEERQDEHGFISREFHRKYRIPADVDPLTITSSLSSDGVLTVNGPRKQVSGPERTIPITREEKPAVTAAPKK
# notes: also called Δ HspB5; Δ mutant of HspB5; source: E. coli BL21(DE3) pLysS, purified (ammonium sulfate, HiTrap Q, Superdex 200)
# B5: wild-type human small heat shock protein HspB6, O14558 1-160 (natural protein)
# chain: T1 sequence (looked up)
# B6: HspB6 R27A (natural protein, human, UniProt O14558 1-160, looked up)
# chain: T1 sequence (looked up) with R27A
# notes: also called R/A HspB6; R/A mutant of HspB6; source: E. coli BL21(DE3) pLysS, purified (ammonium sulfate, HiTrap Phenyl-Sepharose, Superdex 200)
# Key:
# [1] = target: the molecule itself; assay: SEC; isolated protein on Superdex 200 HR 10/30 in buffer B; apparent molecular weight against standards
# [2] = target: T1, wild-type human small heat shock …; assay: SEC; equimolar mixture (30–40 µM each), reduced, preincubated 1 h at 42 °C in buffer B (20 mM Tris-acetate, 150 mM NaCl, 0.1 mM EDTA, 15 mM mercaptoethanol); Superdex 200 HR 10/30; fractions on SDS gels; correlation coefficient and molar ratio from band intensities; details: both partners purified
# HspB6 Δ26–30 = target: B3; assay: as above; details: both partners purified
# HspB6 R27A = target: B6; assay: as above; details: both partners purified
# [3] = target: T2, wild-type human small heat shock …; assay: SEC; isolated protein on Superdex 200 HR 10/30 in buffer B; apparent molecular weight against standards; details: remark: other sources report otherwise
correlation coefficient [2],Binder,binding result [1],also measured
0.99,B1,binds,stoichiometry N [2]: ~2 HspB5/HspB6 molar ratio; correlation coefficient (HspB6 Δ26–30): 0.98; correlation coefficient (HspB6 R27A): 0.99
0.99,B2,binds,–
–,B3,binds,–
0.98,B4,binds,–
–,B5,–,stoichiometry N [3]: 2
–,B6,binds,–
